Results taken from US20080200654A1 (KIRIN PHARMA, published 2008).

T1: A33 antigen (full-length human A33) (human, UniProt Q99795 22-319)
T1 construct: Class I cell membrane protein of the Ig superfamily; also called GPA33; human A33 antigen
T1 sequence: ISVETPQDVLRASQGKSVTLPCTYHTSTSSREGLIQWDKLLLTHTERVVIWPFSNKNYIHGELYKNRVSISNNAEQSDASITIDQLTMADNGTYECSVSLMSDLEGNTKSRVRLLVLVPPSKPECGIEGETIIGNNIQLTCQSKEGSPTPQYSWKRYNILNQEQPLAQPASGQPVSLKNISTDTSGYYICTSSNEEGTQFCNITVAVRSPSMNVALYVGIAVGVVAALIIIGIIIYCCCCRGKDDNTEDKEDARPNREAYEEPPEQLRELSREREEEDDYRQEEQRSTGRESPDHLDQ


Legend:
[1] = target: T1, A33 antigen (full-length human A33); assay: FCM competition on COLO205 cells; antibody 1 µg/ml, competitor mouse anti-A33 antibody 100 µg/ml
Procedure: Whether or not each type of purified monoclonal antibody obtained in Example 8 recognizes an epitope similar to that of the mouse anti-A33 antibody was examined by a competition test using FCM. The COLO205 cell line was suspended at a concentration of 2×10⁶/ml in a PBS Staining Buffer (SB) containing 0.1% NaN₃ and 2% FCS. The cell suspension (50 μl/well) was dispensed in a 96-well round bottom plate (produced by Becton, Dickinson and Company). The purified mouse anti-A33 antibody prepared in Example 1 was not added or added at a concentration of 100 μg/ml to the wells containing each type of purified monoclonal antibody (1 μg/ml and 50 μl), followed by 30 minutes of incubation on ice. A mouse negative control (containing no purified anti-A33 antibody added thereto) was prepared as follows. A human IgG1 antibody (produced by Sigma) was adjusted at a concentration of 1 μg/ml with SB and then 50 μl of the solution was added, followed by 30 minutes of incubation on ice. The resultant was washed twice with SB and then 50 μl of FITC fluorescence-labeled goat anti-human IgG F(ab′)₂ antibody (produced by IBL) was added, followed by 30 minutes of incubation on ice. The resultant was washed once with SB and then the resultant was suspended in 300 μl of a FACS buffer. The mean fluorescence intensity of each cell line was measured by FACS (FACScan produced by Becton, Dickinson and Company). The inhibition (%) between each type of purified monoclonal antibody and the mouse A33 antibody was calculated by the following formula: […]

[2] = target: T1, A33 antigen (full-length human A33); assay: FCM on LoVo cells; grade = ng/ml to reach half MFI 25 (+++ 10<=x<100, ++ 100<=x<1000, + 1000<=x<10000)
From the text: (§1) The reactivity of each type of purified monoclonal antibody obtained in Example 8 to A33-antigen-expressing human colorectal cancer cell line COLO205 cells, LoVo cells (ATCC No. CCL-229), LS174T cells (ATCC No. CL-188), and NCI-H508 cells (ATCC No. CCL-253) was examined by FCM. Human colorectal cancer cell line HT-29 cells (ATCC No. HTB-38) expressing no A33 antigen were also examined as negative control cells. Each cell line was suspended at a concentration of 2×10⁶/ml in a PBS Staining Buffer (SB) containing 0.1% NaN₃ and 2% FCS. The cell suspension (50 μl/well) was dispensed in a 96-well round bottom plate (produced by Becton, Dickinson and Company). 50 μl of each type of purified monoclonal antibody (adjusted using SB at a concentration of 2000, 400, 80, or 16 ng/ml) was added, and then incubation was performed on ice for 30 minutes. A negative control was prepared depending on each subclass. Specifically, a human IgG1 antibody (produced by Sigma) was adjusted using SB at a concentration of 2000, 400, 80, or 16 ng/ml. 50 μl of the solution was added, followed by 30 minutes of incubation on ice. The resultant was washed twice with SB and then 50 μl of an FITC fluorescence-labeled goat anti-human IgG F(ab′)₂ antibody (produced by Southern Biotech), followed by 30 minutes of incubation on ice. The resultant was washed once with SB and then the resultant was suspended in 300 μl of a FACS buffer. The mean fluorescence intensity of each cell line was measured by FACS (FACScan produced by Becton, Dickinson and Company).
(§2) For COLO205 cells, the half value of the mean fluorescence intensity was determined to be 90. For LoVo cells, the half value of the mean fluorescence intensity was determined to be 25. […] When an antibody concentration required to reach such value was 10<=x<100 ng/ml, the reactivity was represented by +++, when the same was 100<=x<1000 ng/ml, the reactivity was represented by ++, and when the same was 1000<=x<10000 ng/ml, the reactivity was represented by +. When no binding was observed, the reactivity was represented by −.

[3] = target: T1, A33 antigen (full-length human A33); assay: FCM on COLO205 cells; grade = ng/ml to reach half MFI 90 (+++ 10<=x<100, ++ 100<=x<1000, + 1000<=x<10000)
From the text: as §1, §2

[4] = target: T1, A33 antigen (full-length human A33); assay: FCM on LS174T cells; grade = ng/ml to reach half MFI 125 (+++ 10<=x<100, ++ 100<=x<1000, + 1000<=x<10000)
From the text: as §1, §2

[5] = target: T1, A33 antigen (full-length human A33); assay: FCM on NCI-H508 cells; grade = ng/ml to reach half MFI 125 (+++ 10<=x<100, ++ 100<=x<1000, + 1000<=x<10000)
From the text: as §1, §2

Row | Binder | Inhibition (%) [1] [%] | antibody concentration required to reach half value of mean fluorescence intensity [2] [ng/mL] | antibody concentration required to reach half value of mean fluorescence intensity [3] [ng/mL] | antibody concentration required to reach half value of mean fluorescence intensity [4] [ng/mL] | antibody concentration required to reach half value of mean fluorescence intensity [5] [ng/mL]
1 | 263A17 (antibody, V domains shown, Human IgG1 kappa antibody purified from the hybridoma; also called 263A17 antibody) VH: EVQLLESGGGLVQPGGSLRLSCAASGFTFSSYAMSWIRQAPGKGLEWVSAISASGGSTYYADSVKGRFTISRDNSKNTLYLQMNSLRAEDTAVYYCAKDRIVGATNYYYGMDVWGQGTTVTVSS VL: DIQMTQSPPSVSASVGDRVTITCRASQGISSWLAWYQHKPGKAPKLLIYGASSLQSGVPSRFSGSGSGTDFTLTISSLQPEDFATYYCQQANSFPITFGQGTRLEIK | 3.7 | 100 to 1000 | 100 to 1000 | 100 to 1000 | 100 to 1000
2 | 125M10AA (antibody, human IgG1, kappa, V domains shown, Human IgG1 kappa antibody purified from hybridoma 125M10AA (FERM BP-10107); also called 125M10AA antibody) VH: QLQVQESGPGLVKPSETLSLICTVSGGSIRTSGYYWGWFRQPPGKGLEWIGTSHNSGSTYYNPSLKSRVTISVDTSKNQFSLKLNSVTAADTAVYYCARQGYDFKVNIDVWGQGTTVTVSS VL: EIVLTQSPATLSLSPGERATLSCRASQSVSSYLAWYQQKPGQAPRLLIYDASNRATGIPARFSGSGSGTDFTLTISSLEPEDFAVYYCQQRSNWPLTFGGGTKVEIKR | 5 | 10 to 100 | 10 to 100 | 10 to 100 | 10 to 100
3 | 125N26F6AA (antibody, human IgG1, kappa, V domains shown, Human IgG1 kappa antibody purified from hybridoma 125N26F6AA (FERM BP-10109); also called 125N26F6AA antibody) VH: QVQLVESGGGVVQPGRSLRLSCAASGFTFSHYGMHWVRQAPGKGLEWVALIWYDGSNKYYADSVKGRFTISRDNSKNTLYLQMNSLRAEDTAVYYCARDPLAAGTSYFDYWGQGTLVTVSS VL: EIVLTQSPDFQSVTPKEKVTITCRASQSIGSSLHWYQQKPDQSPKLLIKYASQSFSGVPSRFSGSGSGTDFTLTINSLEAEDAAAYYCHQSSSLPFTFGPGTKVDIKR | 98 | 10 to 100 | 10 to 100 | 100 to 1000 | 100 to 1000
4 | 125M165DAAA (antibody, V domains shown, Human IgG1 kappa antibody purified from the hybridoma (FERM BP-10106); also called 125M165DAAA antibody) VH: QVQLVESGGGVVQPGRSLRLSCAASGFTFSYYGMHWVRQAPGKGLEWVAVIWYDGSNKYYADSVKGRFTISRDNSKKTLYLQMNSLRAEDTAVYYCARDGHSSGWGDFQHWGQGTLVTVSS VL: EIVLTQSPATLSLSPGERATLSCRASQSVSSSLAWYQQKPGQAPRLLIYDASNRATGIPARFSGSGSGTDFTLTISSLEPEDFAIYYCQQRSNWPPTFGQGTKVEIK | 96 | 10 to 100 | 10 to 100 | 100 to 1000 | 100 to 1000
5 | 125M96ABA (antibody, V domains shown, Human IgG1 kappa antibody purified from the hybridoma (FERM BP-10108); also called 125M96ABA antibody) VH: QLQLQESGPGLVKPSETLSLTCTVSGGSISTSSYYWGWIRQPPGKGLEWIGTIYYNGSTYYSPSLKSRVSISVDTSKNQFSLKLSSVTAADTSVYYCARQGYDIKINIDVWGQGTTVTVSS VL: EIVLTQSPATLSLSPGERATLSCRASQSVSSYLAWYQQKPGQAPRLLIYVASNRATGIPARFSGSGSGTDFTLTISSLEPEDFAVYYCQQRSNWPLTFGGGTKVEIK | 22.8 | 10 to 100 | 10 to 100 | 100 to 1000 | 100 to 1000
6 | 125Q54AAAA (antibody, V domains shown, Human IgG1 kappa antibody purified from the hybridoma (FERM BP-10105); also called 125Q54AAAA antibody) VH: EVQLLESGGGLVQPGGSLRLSCAASGFTFSSYAMSWVRQAPGKGLEWVSDISGSGGYTYYADSVKGRFTISRDNSKNTLYLQMNSLRAEDTAVYYCAKTGDGSGSYSPDSWGQGTLVTVSS VL: DIQMTQSPSSLSASVGDRVTITCRASQGISRWLAWYQQKPEKAPKSLIYAASSLQSGVPSRFSGSGSGTDFTLTISSLQPEDFATYYCQQYNSYPYTFGQGTKLEIK | 46.5 | 10 to 100 | 10 to 100 | 100 to 1000 | 100 to 1000
7 | 125Q47BA (antibody, V domains shown, Human IgG1 kappa antibody purified from the hybridoma (FERM BP-10104); also called 125Q47BA antibody) VH: EVQLLESGGGLVQPGGSLRLSCAASGFTFSSYAMTWVRQAPGKGLEWVSDISGSGGYTYYADSVKGRFTISRDNSKNTLYLQMNSLRAEDTAVYYCAKTGAGSGSYSPDSWGQGTLVTVSS VL: DIQMTQSPSSLSASVGDRVTITCRASQGISSWLAWYQQKPEKAPKSLIYAASSLQSGVPSRFSGSGSGTDFTLTISSLQPEDFATYYCQQYNSYPYTFGQGTKLEIK | 64.1 | 10 to 100 | 10 to 100 | 100 to 1000 | 100 to 1000
8 | 125R5AAAA (antibody, V domains shown, Human IgG1 kappa antibody purified from the hybridoma (FERM BP-10103); also called 125R5AAAA antibody) VH: EVQLLESGGGLVQPGGSLRLSCAASGFTFSSYAMSWVRQAPGKGLEWVSDISGSGGYTYYADSVKGRFTISRDNSKKTLYLQMNSLRAEDTAVYYCAKTGDGSGSYSPDYWGQGTLVTVSS VL: DIQMTQSPSSLSASVGDRVTITCRASQGISSWLAWYQQKPEKAPKSLIYAASSLQSGVPSRFSGSGSGTDFTLTISSLQPEDFATYYCQQYNSYPYTFGQGTKLEIK | 63.9 | 10 to 100 | 10 to 100 | 100 to 1000 | 100 to 1000
